54 substances from patent publication US12195506B2, “Immunotherapy with A*01 restricted peptides and combination of peptides against cancers and related methods” (Immatics Biotechnologies GmbH, priority 2018, dated 2025) can be followed below.

This experiment concerns the target HLA-A*01:01 (Homo sapiens, UniProt P04439, A114D/A174V/A182V/D101N/D185E/E176A/E190D/L180R/Q94H/R68K/S129P/T187R/V100A/V91M/W191G). As to the kind of experiment: MHC binding assay: UV-ligand exchange, ELISA of stabilized MHC complexes (peptide exchange yield). As to conditions: binding to HLA-A*01:01, UV-ligand exchange. The text has this:
Candidate peptides for T cell based therapies according to the present invention were further tested for their MHC binding capacity (affinity). The individual peptide-MHC complexes were produced by UV-ligand exchange, where a UV-sensitive peptide is cleaved upon UV-irradiation and exchanged with the peptide of interest as analyzed. Only peptide candidates that can effectively bind and stabilize the peptide-receptive MHC molecules prevent dissociation of the MHC complexes. To determine the yield of the exchange reaction, an ELISA was performed based on the detection of the light chain (β2m) of stabilized MHC complexes. The assay was performed as generally described in Rodenko et al. (Rodenko et al., 2006)
96 well MAXISorp plates (NUNC) were coated over night with 2 ug/ml streptavidin in PBS at room temperature, washed 4× and blocked for 1 h at 37° C. in 2% BSA containing blocking buffer. Refolded HLA-A*02:01/MLA-001 monomers served as standards, covering the range of 15-500 ng/ml. Peptide-MHC monomers of the UV-exchange reaction were diluted 100-fold in blocking buffer. Samples were incubated for 1 h at 37° C., washed four times, incubated with 2 ug/ml HRP conjugated anti-β2m for 1 h at 37° C., washed again and detected with TMB solution that is stopped with […]. Absorption was measured at 450 nm.
(An ELISA detects its analyte on a solid surface through an enzyme-linked reagent.)
For “99 (AADSNPSEL; listed as Homo sapiens) [compound 99]”, the Peptide exchange result is recorded as “++ (>20% = ++)”.
Consider “100 (TTSSAISWILY; listed as Homo sapiens) [compound 100]”, for which the Peptide exchange result was “+++ (>50 = +++)”.
Under “101 (SITDVDFIY; listed as Homo sapiens) [compound 101]” stands “++ (>20% = ++)”; under “102 (STIRGELFF; listed as Homo sapiens) [compound 102]”, “++ (>20% = ++)”; under “103 (ITDTLIHLM; listed as Homo sapiens) [compound 103]”, “+++ (>50 = +++)”.
Next, “104 (ITDTLIHL; listed as Homo sapiens) [compound 104]”: “++ (>20% = ++)”; “105 (VVFDKSDLAKY; listed as Homo sapiens) [compound 105]”: “++ (>20% = ++)”; “106 (EVVEGKEWGSFY; listed as Homo sapiens) [compound 106]”: “+++ (>50 = +++)”.
Consider “107 (TTENSGNYY; listed as Homo sapiens) [compound 107]”, for which the Peptide exchange result is on record as “++++ (>75% = ++++)”.
Under “108 (NSNLKFLEV; listed as Homo sapiens) [compound 108]” stands “++ (>20% = ++)”.
Under “109 (ISEDKSISF; listed as Homo sapiens) [compound 109]” stands “++ (>20% = ++)”; under “110 (IGDKVDAVY; listed as Homo sapiens) [compound 110]”, “++ (>20% = ++)”.
Next, “111 (TPIPFDKILY; listed as Homo sapiens) [compound 111]”: “++ (>20% = ++)”.
As for “112 (KASSVSAEDGY; listed as Homo sapiens) [compound 112]”, the Peptide exchange entry is listed as “++ (>20% = ++)”.
Next, “113 (ASCRSSAEY; listed as Homo sapiens) [compound 113]”: “++++ (>75% = ++++)”; “114 (AVAAAAGASLY; listed as Homo sapiens) [compound 114]”: “++ (>20% = ++)”.
Next, “115 (NEIDIHSIYFY; listed as Homo sapiens) [compound 115]”: “++ (>20% = ++)”.
In the case of “116 (RSDIGEFEW; listed as Homo sapiens) [compound 116]”, the Peptide exchange entry is “++ (>20% = ++)”.
Under “117 (SPAKQFNIY; listed as Homo sapiens) [compound 117]” stands “+++ (>50 = +++)”.
Under “118 (LTWAHSAKY; listed as Homo sapiens) [compound 118]” stands “+++ (>50 = +++)”; under “119 (TVFDENLSRY; listed as Homo sapiens) [compound 119]”, “++ (>20% = ++)”; under “121 (SADEAHGLL; listed as Homo sapiens) [compound 121]”, “++ (>20% = ++)”.
Next, “122 (ISEAPLTEV; listed as Homo sapiens) [compound 122]”: “++ (>20% = ++)”; “123 (LLKAKDILY; listed as Homo sapiens) [compound 123]”: “++ (>20% = ++)”; “124 (FLKVTGYDKDDY; listed as Homo sapiens) [compound 124]”: “++ (>20% = ++)”.
Turning to “125 (FQYELRELY; listed as Homo sapiens) [compound 125]”, the Peptide exchange result is reported as “++++ (>75% = ++++)”.
Under “126 (TTDPKKFQY; listed as Homo sapiens) [compound 126]” stands “++++ (>75% = ++++)”.
Next, “127 (VPFNLITEY; listed as Homo sapiens) [compound 127]”: “+ (>10% =+)”; “128 (YTEFVDATFTK; listed as Homo sapiens) [compound 128]”: “++++ (>75% = ++++)”; “129 (STIDFRAGF; listed as Homo sapiens) [compound 129]”: “++ (>20% = ++)”.
Under “130 (YIGLKGLYF; listed as Homo sapiens) [compound 130]” stands “++ (>20% = ++)”.
As to “131 (LEDGIEQSAY; listed as Homo sapiens) [compound 131]”, the Peptide exchange result is given as “++ (>20% = ++)”.
Next, “132 (RTHIGYKVY; listed as Homo sapiens) [compound 132]”: “+++ (>50 = +++)”.
Under “133 (ITDVGPGNY; listed as Homo sapiens) [compound 133]” stands “+++ (>50 = +++)”; under “134 (SAPSSSGSPLY; listed as Homo sapiens) [compound 134]”, “++ (>20% = ++)”.
Consider “135 (TFDKQIVLL; listed as Homo sapiens) [compound 135]”, for which the Peptide exchange entry was “++ (>20% = ++)”.
Consider “136 (RRLNFSGFGY; listed as Homo sapiens) [compound 136]”, for which the Peptide exchange result is given as “+++ (>50 = +++)”.
Take “137 (EAYLERIGY; listed as Homo sapiens) [compound 137]”: the Peptide exchange result is “+++ (>50 = +++)”.
Under “138 (IPVHDSVGVTY; listed as Homo sapiens) [compound 138]” stands “+++ (>50 = +++)”; under “139 (PVHDSVGVTY; listed as Homo sapiens) [compound 139]”, “++ (>20% = ++)”; under “140 (SQHIFTVSY; listed as Homo sapiens) [compound 140]”, “++ (>20% = ++)”.
Next, “141 (DAVAPGREY; listed as Homo sapiens) [compound 141]”: “++ (>20% = ++)”; “142 (IEKFAVLY; listed as Homo sapiens) [compound 142]”: “+++ (>50 = +++)”; “143 (HVSGQMLYF; listed as Homo sapiens) [compound 143]”: “++ (>20% = ++)”.
Next, “144 (RTIEGDFLW; listed as Homo sapiens) [compound 144]”: “++ (>20% = ++)”; “145 (LSDAVHVEF; listed as Homo sapiens) [compound 145]”: “+++ (>50 = +++)”.
Take “146 (LCATVCGTEQY; listed as Homo sapiens) [compound 146]”: the Peptide exchange entry was “++ (>20% = ++)”.
In the case of “147 (AQVQDTGRY; listed as Homo sapiens) [compound 147]”, the Peptide exchange result is “+++ (>50 = +++)”.
Next, “148 (GTKQWVHARY; listed as Homo sapiens) [compound 148]”: “+ (>10% =+)”; “149 (PIMSSSQALY; listed as Homo sapiens) [compound 149]”: “++ (>20% = ++)”; “150 (FTTLSDLQTNMA; listed as Homo sapiens) [compound 150]”: “++ (>20% = ++)”.
Under “151 (YEVDTKLLSL; listed as Homo sapiens) [compound 151]” stands “++ (>20% = ++)”; under “152 (YLEDRPLSQ; listed as Homo sapiens) [compound 152]”, “++ (>20% = ++)”.
Under “153 (HSIEVFTHY; listed as Homo sapiens) [compound 153]” stands “++ (>20% = ++)”.
